# Experimental data published in the supplement of paper PMC10567573.
# B1: ZNF263 (parent)
# chain: CSECGESFSRSSRLMSHQRTHTG
# Variants of: B1
# Test: protein stability index of a GFP-peptide fusion (GPS, HEK-293T) (PSI 1-6); higher = more stable
# Conditions: c terminus: native
# 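Also: lentivirally expressed fusions sorted by FACS into six bins by GFP to DsRed ratio, PSI derived from sequencing read proportions per bin multiplied by bin number.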
row,Variant,protein stability index
1,ASECGESFSRSSRLMSHQRTHTG [C1A],2.23
2,DSECGESFSRSSRLMSHQRTHTG [C1D],1.84
3,ESECGESFSRSSRLMSHQRTHTG [C1E],3.15
4,FSECGESFSRSSRLMSHQRTHTG [C1F],1.49
5,GSECGESFSRSSRLMSHQRTHTG [C1G],2.36
6,HSECGESFSRSSRLMSHQRTHTG [C1H],2.11
7,ISECGESFSRSSRLMSHQRTHTG [C1I],2.1
8,KSECGESFSRSSRLMSHQRTHTG [C1K],2.05
9,LSECGESFSRSSRLMSHQRTHTG [C1L],1.75
10,MSECGESFSRSSRLMSHQRTHTG [C1M],2.22
11,NSECGESFSRSSRLMSHQRTHTG [C1N],2.31
12,PSECGESFSRSSRLMSHQRTHTG [C1P],3.14
13,QSECGESFSRSSRLMSHQRTHTG [C1Q],2.46
14,RSECGESFSRSSRLMSHQRTHTG [C1R],2.32
15,SSECGESFSRSSRLMSHQRTHTG [C1S],2.14
16,TSECGESFSRSSRLMSHQRTHTG [C1T],2.06
17,VSECGESFSRSSRLMSHQRTHTG [C1V],1.59
18,WSECGESFSRSSRLMSHQRTHTG [C1W],1.56
19,YSECGESFSRSSRLMSHQRTHTG [C1Y],1.9
20,CAECGESFSRSSRLMSHQRTHTG [S2A],2.4
21,CCECGESFSRSSRLMSHQRTHTG [S2C],1.79
22,CDECGESFSRSSRLMSHQRTHTG [S2D],2.99
23,CEECGESFSRSSRLMSHQRTHTG [S2E],3.24
24,CFECGESFSRSSRLMSHQRTHTG [S2F],1.91
25,CGECGESFSRSSRLMSHQRTHTG [S2G],2.86

row,Variant,protein stability index
1,CHECGESFSRSSRLMSHQRTHTG [S2H],2.35
2,CIECGESFSRSSRLMSHQRTHTG [S2I],2.77
3,CKECGESFSRSSRLMSHQRTHTG [S2K],2.51
4,CLECGESFSRSSRLMSHQRTHTG [S2L],2.67
5,CMECGESFSRSSRLMSHQRTHTG [S2M],3.38
6,CNECGESFSRSSRLMSHQRTHTG [S2N],2.62
7,CPECGESFSRSSRLMSHQRTHTG [S2P],4.06
8,CQECGESFSRSSRLMSHQRTHTG [S2Q],2.84
9,CRECGESFSRSSRLMSHQRTHTG [S2R],2.92
10,CTECGESFSRSSRLMSHQRTHTG [S2T],2.54
11,CVECGESFSRSSRLMSHQRTHTG [S2V],3.85
12,CWECGESFSRSSRLMSHQRTHTG [S2W],2.21
13,CYECGESFSRSSRLMSHQRTHTG [S2Y],2.22
14,CSACGESFSRSSRLMSHQRTHTG [E3A],2.37
15,CSCCGESFSRSSRLMSHQRTHTG [E3C],1.8
16,CSDCGESFSRSSRLMSHQRTHTG [E3D],2.67
17,CSFCGESFSRSSRLMSHQRTHTG [E3F],3.31
18,CSGCGESFSRSSRLMSHQRTHTG [E3G],1.71
19,CSHCGESFSRSSRLMSHQRTHTG [E3H],2.56
20,CSICGESFSRSSRLMSHQRTHTG [E3I],4.09
21,CSKCGESFSRSSRLMSHQRTHTG [E3K],2.68
22,CSLCGESFSRSSRLMSHQRTHTG [E3L],2.9
23,CSMCGESFSRSSRLMSHQRTHTG [E3M],2.26
24,CSNCGESFSRSSRLMSHQRTHTG [E3N],2.58
25,CSPCGESFSRSSRLMSHQRTHTG [E3P],1.33

row,Variant,protein stability index
1,CSQCGESFSRSSRLMSHQRTHTG [E3Q],3.33
2,CSRCGESFSRSSRLMSHQRTHTG [E3R],2.12
3,CSSCGESFSRSSRLMSHQRTHTG [E3S],1.87
4,CSTCGESFSRSSRLMSHQRTHTG [E3T],3.74
5,CSVCGESFSRSSRLMSHQRTHTG [E3V],4.21
6,CSWCGESFSRSSRLMSHQRTHTG [E3W],3.35
7,CSYCGESFSRSSRLMSHQRTHTG [E3Y],3.54
8,CSEAGESFSRSSRLMSHQRTHTG [C4A],1.56
9,CSEDGESFSRSSRLMSHQRTHTG [C4D],2.31
10,CSEEGESFSRSSRLMSHQRTHTG [C4E],1.8
11,CSEFGESFSRSSRLMSHQRTHTG [C4F],1.24
12,CSEGGESFSRSSRLMSHQRTHTG [C4G],1.82
13,CSEHGESFSRSSRLMSHQRTHTG [C4H],1.4
14,CSEIGESFSRSSRLMSHQRTHTG [C4I],1.74
15,CSEKGESFSRSSRLMSHQRTHTG [C4K],1.42
16,CSELGESFSRSSRLMSHQRTHTG [C4L],1.81
17,CSEMGESFSRSSRLMSHQRTHTG [C4M],1.85
18,CSENGESFSRSSRLMSHQRTHTG [C4N],2.11
19,CSEPGESFSRSSRLMSHQRTHTG [C4P],1.51
20,CSEQGESFSRSSRLMSHQRTHTG [C4Q],1.53
21,CSERGESFSRSSRLMSHQRTHTG [C4R],1.15
22,CSETGESFSRSSRLMSHQRTHTG [C4T],1.56
23,CSEVGESFSRSSRLMSHQRTHTG [C4V],2.12
24,CSECAESFSRSSRLMSHQRTHTG [G5A],2.77
25,CSECCESFSRSSRLMSHQRTHTG [G5C],2.33

row,Variant,protein stability index
1,CSECDESFSRSSRLMSHQRTHTG [G5D],1.79
2,CSECEESFSRSSRLMSHQRTHTG [G5E],1.41
3,CSECFESFSRSSRLMSHQRTHTG [G5F],3.91
4,CSECHESFSRSSRLMSHQRTHTG [G5H],1.64
5,CSECIESFSRSSRLMSHQRTHTG [G5I],2.23
6,CSECKESFSRSSRLMSHQRTHTG [G5K],1.29
7,CSECLESFSRSSRLMSHQRTHTG [G5L],1.92
8,CSECNESFSRSSRLMSHQRTHTG [G5N],2.2
9,CSECPESFSRSSRLMSHQRTHTG [G5P],1.89
10,CSECQESFSRSSRLMSHQRTHTG [G5Q],2.03
11,CSECRESFSRSSRLMSHQRTHTG [G5R],1.4
12,CSECSESFSRSSRLMSHQRTHTG [G5S],1.69
13,CSECTESFSRSSRLMSHQRTHTG [G5T],2.3
14,CSECVESFSRSSRLMSHQRTHTG [G5V],1.03
15,CSECWESFSRSSRLMSHQRTHTG [G5W],1.88
16,CSECYESFSRSSRLMSHQRTHTG [G5Y],2.33
17,CSECGASFSRSSRLMSHQRTHTG [E6A],3.66
18,CSECGCSFSRSSRLMSHQRTHTG [E6C],2.52
19,CSECGDSFSRSSRLMSHQRTHTG [E6D],1.89
20,CSECGFSFSRSSRLMSHQRTHTG [E6F],1.61
21,CSECGHSFSRSSRLMSHQRTHTG [E6H],2.05
22,CSECGISFSRSSRLMSHQRTHTG [E6I],2.15
